Data taken from IntAct's records for PubMed 14638859.

B1: ADP-ribosylation factor-binding protein GGA1 (Homo sapiens), Q9UJY5 (parent)
chain: MEPAMEPETLEARINRATNPLNKELDWASINGFCEQLNEDFEGPPLATRLLAHKIQSPQEWEAIQALTVLETCMKSCGKRFHDEVGKFRFLNELIKVVSPKYLGSRTSEKVKNKILELLYSWTVGLPEEVKIAEAYQMLKKQGIVKSDPKLPDDTTFPLPPPRPKNVIFEDEEKSKMLARLLKSSHPEDLRAANKLIKEMVQEDQKRMEKISKRVNAIEEVNNNVKLLTEMVMSHSQGGAAAGSSEDLMKELYQRCERMRPTLFRLASDTEDNDEALAEILQANDNLTQVINLYKQLVRGEEVNGDATAGSIPGSTSALLDLSGLDLPPAGTTYPAMPTRPGEQASPEQPSASVSLLDDELMSLGLSDPTPPSGPSLDGTGWNSFQSSDATEPPAPALAQAPSMESRPPAQTSLPASSGLDDLDLLGKTLLQQSLPPESQQVRWEKQQPTPRLTLRDLQNKSSSCSSPSSSATSLLHTVSPEPPRPPQQPVPTELSLASITVPLESIKPSNILPVTVYDQHGFRILFHFARDPLPGRSDVLVVVVSMLSTAPQPIRNIVFQSAVPKVMKVKLQPPSGTELPAFNPIVHPSAITQVLLLANPQKEKVRLRYKLTFTMGDQTYNEMGDVDQFPPPETWGSL
partner: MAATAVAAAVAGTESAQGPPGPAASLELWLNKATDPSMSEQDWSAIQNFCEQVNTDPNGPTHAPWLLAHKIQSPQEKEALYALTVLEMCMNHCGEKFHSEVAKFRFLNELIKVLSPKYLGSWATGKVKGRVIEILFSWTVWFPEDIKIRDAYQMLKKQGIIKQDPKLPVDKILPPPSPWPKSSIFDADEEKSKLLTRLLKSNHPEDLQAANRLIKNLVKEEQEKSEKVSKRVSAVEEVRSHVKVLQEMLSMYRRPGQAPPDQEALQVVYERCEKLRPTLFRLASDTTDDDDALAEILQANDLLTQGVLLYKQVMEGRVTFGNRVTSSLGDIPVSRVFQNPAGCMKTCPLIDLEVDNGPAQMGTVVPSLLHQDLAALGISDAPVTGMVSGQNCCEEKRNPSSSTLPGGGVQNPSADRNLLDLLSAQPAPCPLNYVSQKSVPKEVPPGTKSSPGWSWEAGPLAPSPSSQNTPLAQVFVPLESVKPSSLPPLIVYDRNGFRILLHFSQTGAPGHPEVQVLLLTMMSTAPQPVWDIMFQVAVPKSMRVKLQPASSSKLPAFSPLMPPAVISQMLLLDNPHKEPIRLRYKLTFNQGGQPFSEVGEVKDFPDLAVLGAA

Variants of: B1
Conditions: with gga2_human GGA2, Q9UJY4
D358A was tested, and the “effect of a mutation on the interaction” value was “with no effect”.
